Data as given in ChEMBL document CHEMBL1156468, “Crystal structures of Saccharomyces cerevisiae N-myristoyltransferase with bound myristoyl-CoA and inhibitors reveal the functional roles of the N-terminal region” (J Biol Chem, 2007).

What was measured:
[1] = biological target: T1, Glycylpeptide N-tetradecanoyltransferase (Saccharomyces cerevisiae S288c, UniProt P14743); experiment: Inhibition of Saccharomyces cerevisiae NMT
T1 sequence (P14743 whole entry): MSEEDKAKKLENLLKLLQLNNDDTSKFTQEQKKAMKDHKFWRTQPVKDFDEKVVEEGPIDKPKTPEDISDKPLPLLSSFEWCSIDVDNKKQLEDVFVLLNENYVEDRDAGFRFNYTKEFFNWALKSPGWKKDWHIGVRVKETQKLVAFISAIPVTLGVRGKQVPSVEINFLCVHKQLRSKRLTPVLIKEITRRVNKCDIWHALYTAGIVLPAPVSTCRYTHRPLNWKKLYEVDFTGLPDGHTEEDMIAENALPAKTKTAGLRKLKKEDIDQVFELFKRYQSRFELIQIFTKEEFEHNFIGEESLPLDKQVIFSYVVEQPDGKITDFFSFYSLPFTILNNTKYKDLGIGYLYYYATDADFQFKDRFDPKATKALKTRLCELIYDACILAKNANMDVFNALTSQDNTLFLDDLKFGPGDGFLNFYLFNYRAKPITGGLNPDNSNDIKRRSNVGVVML

[2] = substrate: CC(C)C[C@H](NC(=O)CN)C(=O)N[C@@H](Cc1ccccc1)C(=O)N[C@@H](C)C(=O)N[C@@H](CO)C(=O)N[C@@H](CCCCN)C(=O)N[C@@H](CC(C)C)C(=O)N[C@@H](Cc1ccccc1)C(=O)O; experiment: Activity of Saccharomyces cerevisiae wild type NMT assessed as production of coenzyme A after 1 hr
[3] = substrate: CC(C)C[C@H](NC(=O)CN)C(=O)N[C@@H](Cc1ccccc1)C(=O)N[C@@H](C)C(=O)N[C@@H](CO)C(=O)N[C@@H](CCCCN)C(=O)N[C@@H](CC(C)C)C(=O)N[C@@H](Cc1ccccc1)C(=O)O; experiment: Ratio of kcat to Km for Saccharomyces cerevisiae wild type NMT
[4] = substrate: CC(C)C[C@H](NC(=O)CN)C(=O)N[C@@H](Cc1ccccc1)C(=O)N[C@@H](C)C(=O)N[C@@H](CO)C(=O)N[C@@H](CCCCN)C(=O)N[C@@H](CC(C)C)C(=O)N[C@@H](Cc1ccccc1)C(=O)O; experiment: Activity of Saccharomyces cerevisiae NMT T24D mutant assessed as production of coenzyme A after 1 hr
[5] = substrate: CC(C)C[C@H](NC(=O)CN)C(=O)N[C@@H](Cc1ccccc1)C(=O)N[C@@H](C)C(=O)N[C@@H](CO)C(=O)N[C@@H](CCCCN)C(=O)N[C@@H](CC(C)C)C(=O)N[C@@H](Cc1ccccc1)C(=O)O; experiment: Ratio of kcat to Km for Saccharomyces cerevisiae NMT T24D mutant
[6] = substrate: CC(C)C[C@H](NC(=O)CN)C(=O)N[C@@H](Cc1ccccc1)C(=O)N[C@@H](C)C(=O)N[C@@H](CO)C(=O)N[C@@H](CCCCN)C(=O)N[C@@H](CC(C)C)C(=O)N[C@@H](Cc1ccccc1)C(=O)O; experiment: Activity of Saccharomyces cerevisiae NMT D106K mutant assessed as production of coenzyme A after 1 hr
[7] = substrate: CC(C)C[C@H](NC(=O)CN)C(=O)N[C@@H](Cc1ccccc1)C(=O)N[C@@H](C)C(=O)N[C@@H](CO)C(=O)N[C@@H](CCCCN)C(=O)N[C@@H](CC(C)C)C(=O)N[C@@H](Cc1ccccc1)C(=O)O; experiment: Ratio of kcat to Km for Saccharomyces cerevisiae NMT D106K mutant

How did the IC50 [1] turn out when `Cc1nccn1CCCCc1ccc(CC(=O)N[C@@H](CO)C(=O)N[C@@H](CCCCN)C(=O)NCCC2CCCCC2)cc1` [SC-58272] was run?
Its IC50 is 24 nM.

For `CCCCCCCCCCCCCC(=O)CSCCNC(=O)CCNC(=O)C(O)C(C)(C)COP(=O)(O)OP(=O)(O)OC[C@H]1O[C@@H](n2cnc3c(N)ncnc32)[C@H](O)[C@@H]1OP(=O)(O)O` (stereo partly specified), which IC50 [1] is on record?
The IC50 was 50 nM.

B1: Glycylpeptide N-tetradecanoyltransferase (Saccharomyces cerevisiae S288c), P14743 (protein)
chain: MSEEDKAKKLENLLKLLQLNNDDTSKFTQEQKKAMKDHKFWRTQPVKDFDEKVVEEGPIDKPKTPEDISDKPLPLLSSFEWCSIDVDNKKQLEDVFVLLNENYVEDRDAGFRFNYTKEFFNWALKSPGWKKDWHIGVRVKETQKLVAFISAIPVTLGVRGKQVPSVEINFLCVHKQLRSKRLTPVLIKEITRRVNKCDIWHALYTAGIVLPAPVSTCRYTHRPLNWKKLYEVDFTGLPDGHTEEDMIAENALPAKTKTAGLRKLKKEDIDQVFELFKRYQSRFELIQIFTKEEFEHNFIGEESLPLDKQVIFSYVVEQPDGKITDFFSFYSLPFTILNNTKYKDLGIGYLYYYATDADFQFKDRFDPKATKALKTRLCELIYDACILAKNANMDVFNALTSQDNTLFLDDLKFGPGDGFLNFYLFNYRAKPITGGLNPDNSNDIKRRSNVGVVML
What does the source list for B1?
Km [2]: 13.7 µM; kcat [2]: 3.06 s⁻¹; kcat/Km [3]: 2.24 ×10⁵ /M/s

B2: Glycylpeptide N-tetradecanoyltransferase (Saccharomyces cerevisiae S288c), P14743 T24D (protein)
chain: MSEEDKAKKLENLLKLLQLNNDDDSKFTQEQKKAMKDHKFWRTQPVKDFDEKVVEEGPIDKPKTPEDISDKPLPLLSSFEWCSIDVDNKKQLEDVFVLLNENYVEDRDAGFRFNYTKEFFNWALKSPGWKKDWHIGVRVKETQKLVAFISAIPVTLGVRGKQVPSVEINFLCVHKQLRSKRLTPVLIKEITRRVNKCDIWHALYTAGIVLPAPVSTCRYTHRPLNWKKLYEVDFTGLPDGHTEEDMIAENALPAKTKTAGLRKLKKEDIDQVFELFKRYQSRFELIQIFTKEEFEHNFIGEESLPLDKQVIFSYVVEQPDGKITDFFSFYSLPFTILNNTKYKDLGIGYLYYYATDADFQFKDRFDPKATKALKTRLCELIYDACILAKNANMDVFNALTSQDNTLFLDDLKFGPGDGFLNFYLFNYRAKPITGGLNPDNSNDIKRRSNVGVVML
How did the Km [4] turn out when B2 was run?
Its Km is 41.6 µM.

And the kcat [4]?
Its kcat is 2.77 s⁻¹.

And the kcat/Km [5]?
The kcat/Km was 6.67 ×10⁴ /M/s.

B3: Glycylpeptide N-tetradecanoyltransferase (Saccharomyces cerevisiae S288c), P14743 D106K (protein)
chain: MSEEDKAKKLENLLKLLQLNNDDTSKFTQEQKKAMKDHKFWRTQPVKDFDEKVVEEGPIDKPKTPEDISDKPLPLLSSFEWCSIDVDNKKQLEDVFVLLNENYVEKRDAGFRFNYTKEFFNWALKSPGWKKDWHIGVRVKETQKLVAFISAIPVTLGVRGKQVPSVEINFLCVHKQLRSKRLTPVLIKEITRRVNKCDIWHALYTAGIVLPAPVSTCRYTHRPLNWKKLYEVDFTGLPDGHTEEDMIAENALPAKTKTAGLRKLKKEDIDQVFELFKRYQSRFELIQIFTKEEFEHNFIGEESLPLDKQVIFSYVVEQPDGKITDFFSFYSLPFTILNNTKYKDLGIGYLYYYATDADFQFKDRFDPKATKALKTRLCELIYDACILAKNANMDVFNALTSQDNTLFLDDLKFGPGDGFLNFYLFNYRAKPITGGLNPDNSNDIKRRSNVGVVML
For B3, which Km [6] is on record?
The Km was 30.6 µM.

And the kcat [6]?
The kcat was 2.65 s⁻¹.

What about the kcat/Km [7] of the same molecule?
The kcat/Km was 8.65 ×10⁴ /M/s.
